Consider two substances from article PMC3549490.

Test [1] has as its target UNC-45 Q452pBpa (wild-type Q452B) (C. elegans). The experiment in a line: cross-linking.
The target of test [2] is UNC-45 (C. elegans), full-length recombinant protein (C. elegans). The experiment in a line: ITC.

Values joined by “and” are separate entries in the source; they are usually repeats but may differ in a detail not shown here. Equal values may be shown once.

By stoichiometry N is commonly meant a count of units in the complex or per binding partner. In the case of “UNC-45 Q452pBpa (wild-type Q452B) (natural protein)”, in test [1], the stoichiometry N was 2 and > 5.
A word on the Kd: it is the constant that tells how readily two partners part at equilibrium. With “Hsp90 (DAF-21 in C. elegans), full-length recombinant protein (from UniProt Q18688 1-702) (natural protein)”, the Kd in test [2] was determined as 31 µM.
